Experiment [1] addresses RGM of chick tectal membranes (chick) (UniProt Q8JG54). In words: cell-based or functional assay.
Experiment [2] deals with DCC (Deleted in Colorectal Cancer) expressed on COS-7 cells. Put plainly: RGM-AP binding to transfected COS-7 cells.
Experiment [3] has as its target mouse Neogenin expressed on COS-7 cells (mouse) (UniProt P97798). Put plainly: AP fusion binding to transfected COS-7 cells, saturation and Scatchard analysis.

Among the data in patent US20130101605A1 are retinotectal stripe assay: blockade of retinal axon stripe preference, fold lower affinity than for Neogenin and Kd values, retold here.

pKd: −log10 of the molar value.

UniProt Q8JG54, sequence (Q8JG54 150-404 limits assumed): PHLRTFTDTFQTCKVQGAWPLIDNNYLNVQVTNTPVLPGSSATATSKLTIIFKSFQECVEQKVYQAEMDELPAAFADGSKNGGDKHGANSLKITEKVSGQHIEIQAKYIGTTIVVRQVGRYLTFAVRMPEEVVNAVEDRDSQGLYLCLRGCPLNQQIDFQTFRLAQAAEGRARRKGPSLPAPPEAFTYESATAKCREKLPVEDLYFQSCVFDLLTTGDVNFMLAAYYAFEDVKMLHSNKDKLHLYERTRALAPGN
UniProt P97798, sequence (P97798 37-1492): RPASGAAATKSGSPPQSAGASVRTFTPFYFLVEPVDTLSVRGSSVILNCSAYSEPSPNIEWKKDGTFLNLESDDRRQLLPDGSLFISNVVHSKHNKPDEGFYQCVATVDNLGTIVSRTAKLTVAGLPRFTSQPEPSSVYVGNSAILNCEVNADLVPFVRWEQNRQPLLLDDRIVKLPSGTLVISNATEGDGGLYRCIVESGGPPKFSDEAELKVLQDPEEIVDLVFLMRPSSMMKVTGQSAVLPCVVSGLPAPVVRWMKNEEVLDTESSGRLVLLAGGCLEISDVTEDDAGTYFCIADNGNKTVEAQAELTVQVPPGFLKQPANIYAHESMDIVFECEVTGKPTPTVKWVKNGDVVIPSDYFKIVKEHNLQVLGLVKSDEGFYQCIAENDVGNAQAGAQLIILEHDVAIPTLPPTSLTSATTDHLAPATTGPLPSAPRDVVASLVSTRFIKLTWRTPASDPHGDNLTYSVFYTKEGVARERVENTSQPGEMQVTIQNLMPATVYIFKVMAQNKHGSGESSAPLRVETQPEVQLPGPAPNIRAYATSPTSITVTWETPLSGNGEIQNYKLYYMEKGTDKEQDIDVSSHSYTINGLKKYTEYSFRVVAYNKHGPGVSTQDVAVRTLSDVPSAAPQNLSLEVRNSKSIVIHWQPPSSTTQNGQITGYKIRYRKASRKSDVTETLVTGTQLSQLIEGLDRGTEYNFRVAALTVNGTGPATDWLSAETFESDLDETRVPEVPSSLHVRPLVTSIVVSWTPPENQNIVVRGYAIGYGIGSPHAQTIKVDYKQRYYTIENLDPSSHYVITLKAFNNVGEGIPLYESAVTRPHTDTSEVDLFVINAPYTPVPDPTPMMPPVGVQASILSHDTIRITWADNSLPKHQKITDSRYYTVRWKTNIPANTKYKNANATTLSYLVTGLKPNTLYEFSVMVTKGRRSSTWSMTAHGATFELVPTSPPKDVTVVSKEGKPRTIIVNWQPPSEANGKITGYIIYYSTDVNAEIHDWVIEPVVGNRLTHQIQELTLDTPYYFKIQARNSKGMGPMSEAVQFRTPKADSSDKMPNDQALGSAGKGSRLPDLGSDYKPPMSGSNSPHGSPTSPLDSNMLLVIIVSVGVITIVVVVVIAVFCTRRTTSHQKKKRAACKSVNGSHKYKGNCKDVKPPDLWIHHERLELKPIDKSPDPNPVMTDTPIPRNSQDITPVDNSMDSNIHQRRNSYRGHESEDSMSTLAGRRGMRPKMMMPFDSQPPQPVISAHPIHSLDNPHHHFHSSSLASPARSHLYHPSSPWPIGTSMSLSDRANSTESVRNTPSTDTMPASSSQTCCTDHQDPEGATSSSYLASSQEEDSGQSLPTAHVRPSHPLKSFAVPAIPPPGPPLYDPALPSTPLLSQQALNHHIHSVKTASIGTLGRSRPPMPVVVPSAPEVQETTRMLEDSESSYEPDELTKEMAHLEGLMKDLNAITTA

In the case of “Soluble ectodomain of chick Neogenin-1 (1-1027) with a carboxyl MycHis tag (from UniProt Q90610 1-1027) (receptor)”, the retinotectal stripe assay: blockade of retinal axon stripe preference in experiment [1] is 400 nM. As for “chick RGM-AP fusion protein (chick RGM aa 28 to 403 fused to human placental alkaline phosphatase, carboxy-terminal Myc His tag) (from UniProt Q8JG54 28-403; P05187 23-511) (ligand)”, in experiment [2], the fold lower affinity than for Neogenin turned out to be 50 fold. Also, the pKd – broadly, −log10 of the Kd, conventionally taken in molar units – in experiment [3] was 9.64.
